Reference: PMC4253958

How the values were obtained:
[1] = biological target: APP-D8, N-terminally myc-tagged APP695 (human) (UniProt P05067)
[2] = biological target: APPΔF616, N-terminally myc-tagged APP695 (human) (UniProt P05067)
[3] = biological target: APPΔS622, N-terminally myc-tagged APP695 (human) (UniProt P05067)

“APP-D8, N-terminally myc-tagged APP695 (from UniProt P05067-4 18-695) (natural protein)” gave an S2 cell aggregation assay: clustered transfected cells, compared to APPwt expressing cells [1] of 2 fold.

For “APPΔF616, N-terminally myc-tagged APP695 (from UniProt P05067-4 18-695) (natural protein)”, the S2 cell aggregation assay: clustered transfected cells, compared to APPwt expressing cells [2] was over 2 fold.

Work on “APPΔS622, N-terminally myc-tagged APP695 (from UniProt P05067-4 18-695) (natural protein)” yielded an S2 cell aggregation assay: clustered transfected cells, compared to APPwt expressing cells [3] of over 2 fold.
